Reference: patent publication US8772452B2, “Calcium-binding photoprotein” (JNC Corporation, priority 2009, dated 2014)

What was measured:
[1] = Luminescence pattern triggered by addition of calcium (luminescence plate reader Centro LB960); type: biochemical
Protocol: The luminescence activity of the recombinant clytin-ESNA of EXAMPLE 4 was measured as follows. After mixing 2-mercaptoethanol (1 μl) and substrate coelenterazine (1 μg/μl dissolved in ethanol) with 30 mM Tris-HCl (pH 7.6) containing 10 mM EDTA, the recombinant apoclytin-ESNA at each purification step was added to the mixture. The reaction was carried out on ice (4° C.) for 2 hours to regenerate recombinant clytin-ESNA. The luminescence reaction was triggered by adding a 50 mM calcium solution (100 μl/well) to 1 μl of this regenerated recombinant clytin-ESNA solution. The luminescence activity was measured for 10 seconds using a luminescence plate reader Centro LB960 (manufactured by Berthold) and expressed in terms of the maximum luminescence intensity (Imax).
In order to compare the luminescence properties between the recombinant clytin-ESNA (CLI-ESNA) obtained in EXAMPLE 5 and other holoproteins (aequorin (AQ)), clytin-I (CL-I), clytin-II (CL-II)) and obelin (Ob)), the luminescence patterns triggered by the addition of calcium were compared.
The luminescence patterns of CLI-ESNA, AQ, CL-I, CL-II and Ob were measured as follows. […] The luminescence reaction was initiated by adding 100 μl/well of a 50 mM calcium solution to this reconstitution solution. […]

[2] = Bioluminescence emission spectrum on addition of CaCl2 (JASCO FP-6500, excitation source off); type: physicochemical; settings: 0.1 ml of 50 mM CaCl2 added to 1 ml of 50 mM Tris-HCl (pH 7.6), 0.02 mg protein
Protocol: Bioluminescence emission spectra of the recombinant clytin-ESNA obtained in EXAMPLE 4, 5) were measured in a quartz cell having a 10 mm optical path under the given conditions (band width for emission/excitation: 20 nm, response: 0.5 sec, scan speed: 2000 nm/min) using a fluorescence spectrophotometer (JASCO FP-6500) with the excitation source turned off.

B1: recombinant clytin-ESNA: Holoprotein (calcium-binding photoprotein) regenerated from recombinant apoclytin-ESNA (SEQ ID NO: 2/6) and coelenterazine (protein)
chain: VKLRPNFDNPKWVNRHKFMFNFLDINGDGKITLDEIVSKASDDICAKLGATPEQTKRHQDAVEAFFKKIGMDYGKEVEFPAFVDGWKELANYDLKLWSQNKKSLIRDWGDAVFDIFDKDGSGSISLDEWKAYGRISGICPSDEDAEKTFKHCDLDNSGKLDVDEMTRQHLGFWYTLDPTSDGLYGNFVP
modifications: coelenterazine
decay pattern of the luminescence patterns ([1]; 100 μl/well of 50 mM calcium solution, measured for 10 seconds, as compared to AQ, Cl-I, Ob): rapid decay pattern
S/N ratio ([1]; compared with Cl-I, luminescence triggered by calcium): higher S/N ratio than Cl-I
bioluminescence emission maximum wavelength [2]: 470 nm
